Experimental data as given in article PMC6572788.

B1: nanobody D12 (VHH)
VHH: QVQLQESGGGLVQAGSSLRLACAATGSIRSINNMGWYRQAPGKQRGMVAIITRVGNTDYADSVKGRFTISRDNAKNTVYLQMNSLKPEDTATYYCHAEITEQSRPFYLTDDYWGQGTQVTVSS
B2: nanobody T2a (VHH)
VHH: QVQLQESGGGLVQAGGSLRLSCAASGSIFRIDAMGWYRQAPGKQRELVAHSTSGGSTDYADSVKGRFTISRDNAKNTVYLQMNSLKPEDTAVYYCNADVRTRWYASNNYWGQGTQVTVSS
B3: nanobody T27 (VHH)
VHH: QVQLQESGGGLEQPGGSLRLSCATSGVIFGINAMGWYRQAPGKQRELVATFTSGGSTNYADFVEGRFTISRDNAKNTVYLQMNGLRPEDTAVYYCHATVVVSRYGLTYDYWGQGTQVTVSS
B4: nanobody G3a (VHH)
VHH: QVQLQESGGGLVQAGGSLRLSCTASGRAFSWYVMGWFRQAPGKEREFVATVSGNGSRRDYADSVKGRFTISRDNAKNTVYLQMNSLKPEDTAVYYCAASSTYYYTDPEKYDYWGQGTQVTVSS
B5: nanobody T4 (VHH)
VHH: QVQLQESGGGLVQAGGSLRLSCAASGSTFAIIAMGWYRQAPGKQRELVAVISTGDTRYADSVKGRFTISRDNAKNTVYLQMDSLRPEDTAVYYCNAAVQVRDYRNYWGQGTQVTVSS

Assays:
[1] = molecular target: wt-CFTR fused to enhanced green fluorescent protein (His10-SUMO*-CFTR^FLAG-EGFP), PKA phosphorylated (human) (UniProt P13569)
[2] = molecular target: wt-CFTR fused to enhanced green fluorescent protein (His10-SUMO*-CFTR^FLAG-EGFP), PKA phosphorylated (human) (UniProt P13569); remark: listed apart in the source
[3] = molecular target: stabilized version of human CFTR (stab-CFTR: 2PT/ΔRI/R1048A_1172X) (human) (UniProt P13569)
stabilized version of human CFTR (stab-CFTR: 2PT/ΔRI/R1048A_1172X) (human), sequence (P13569 other isoform, or with tags, fused parts or gaps, stated change not applied): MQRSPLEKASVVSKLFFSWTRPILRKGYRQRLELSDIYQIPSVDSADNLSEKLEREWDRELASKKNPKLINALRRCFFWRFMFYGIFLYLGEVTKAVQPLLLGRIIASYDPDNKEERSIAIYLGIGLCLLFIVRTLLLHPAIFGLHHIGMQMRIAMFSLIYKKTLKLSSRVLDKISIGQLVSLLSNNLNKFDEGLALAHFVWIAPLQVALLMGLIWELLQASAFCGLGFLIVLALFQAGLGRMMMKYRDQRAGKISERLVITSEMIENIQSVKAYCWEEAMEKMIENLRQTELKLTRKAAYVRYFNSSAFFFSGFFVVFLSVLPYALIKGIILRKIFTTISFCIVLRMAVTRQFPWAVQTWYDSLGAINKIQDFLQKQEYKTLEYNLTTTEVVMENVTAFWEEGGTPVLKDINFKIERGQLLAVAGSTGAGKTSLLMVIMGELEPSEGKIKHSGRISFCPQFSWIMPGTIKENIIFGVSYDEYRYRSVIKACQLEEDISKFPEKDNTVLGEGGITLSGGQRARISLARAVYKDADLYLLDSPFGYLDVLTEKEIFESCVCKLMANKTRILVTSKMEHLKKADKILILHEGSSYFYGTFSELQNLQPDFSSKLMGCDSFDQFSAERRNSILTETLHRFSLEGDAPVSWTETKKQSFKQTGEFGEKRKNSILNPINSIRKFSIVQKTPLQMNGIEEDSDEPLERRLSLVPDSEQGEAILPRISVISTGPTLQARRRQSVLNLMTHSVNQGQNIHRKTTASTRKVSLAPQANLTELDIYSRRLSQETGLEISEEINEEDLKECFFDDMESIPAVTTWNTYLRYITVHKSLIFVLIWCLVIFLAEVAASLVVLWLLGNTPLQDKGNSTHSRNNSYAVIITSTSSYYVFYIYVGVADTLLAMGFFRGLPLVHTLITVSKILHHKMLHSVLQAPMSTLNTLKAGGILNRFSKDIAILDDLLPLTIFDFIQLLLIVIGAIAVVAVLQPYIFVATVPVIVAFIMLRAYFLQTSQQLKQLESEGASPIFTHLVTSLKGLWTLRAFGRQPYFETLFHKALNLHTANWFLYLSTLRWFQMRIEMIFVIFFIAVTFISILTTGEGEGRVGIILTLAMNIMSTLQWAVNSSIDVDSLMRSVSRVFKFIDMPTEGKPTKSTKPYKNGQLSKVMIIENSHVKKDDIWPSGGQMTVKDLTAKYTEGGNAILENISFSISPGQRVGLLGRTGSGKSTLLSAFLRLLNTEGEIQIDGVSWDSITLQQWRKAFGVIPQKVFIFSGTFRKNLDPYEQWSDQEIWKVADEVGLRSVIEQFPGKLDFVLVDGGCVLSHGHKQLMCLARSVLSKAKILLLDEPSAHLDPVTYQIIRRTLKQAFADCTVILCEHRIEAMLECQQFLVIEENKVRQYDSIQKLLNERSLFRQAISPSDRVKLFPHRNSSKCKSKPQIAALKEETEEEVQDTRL

wt-CFTR fused to enhanced green fluorescent protein (His10-SUMO*-CFTR^FLAG-EGFP), PKA phosphorylated (human), sequence (P13569 whole entry, the tested form may be a part): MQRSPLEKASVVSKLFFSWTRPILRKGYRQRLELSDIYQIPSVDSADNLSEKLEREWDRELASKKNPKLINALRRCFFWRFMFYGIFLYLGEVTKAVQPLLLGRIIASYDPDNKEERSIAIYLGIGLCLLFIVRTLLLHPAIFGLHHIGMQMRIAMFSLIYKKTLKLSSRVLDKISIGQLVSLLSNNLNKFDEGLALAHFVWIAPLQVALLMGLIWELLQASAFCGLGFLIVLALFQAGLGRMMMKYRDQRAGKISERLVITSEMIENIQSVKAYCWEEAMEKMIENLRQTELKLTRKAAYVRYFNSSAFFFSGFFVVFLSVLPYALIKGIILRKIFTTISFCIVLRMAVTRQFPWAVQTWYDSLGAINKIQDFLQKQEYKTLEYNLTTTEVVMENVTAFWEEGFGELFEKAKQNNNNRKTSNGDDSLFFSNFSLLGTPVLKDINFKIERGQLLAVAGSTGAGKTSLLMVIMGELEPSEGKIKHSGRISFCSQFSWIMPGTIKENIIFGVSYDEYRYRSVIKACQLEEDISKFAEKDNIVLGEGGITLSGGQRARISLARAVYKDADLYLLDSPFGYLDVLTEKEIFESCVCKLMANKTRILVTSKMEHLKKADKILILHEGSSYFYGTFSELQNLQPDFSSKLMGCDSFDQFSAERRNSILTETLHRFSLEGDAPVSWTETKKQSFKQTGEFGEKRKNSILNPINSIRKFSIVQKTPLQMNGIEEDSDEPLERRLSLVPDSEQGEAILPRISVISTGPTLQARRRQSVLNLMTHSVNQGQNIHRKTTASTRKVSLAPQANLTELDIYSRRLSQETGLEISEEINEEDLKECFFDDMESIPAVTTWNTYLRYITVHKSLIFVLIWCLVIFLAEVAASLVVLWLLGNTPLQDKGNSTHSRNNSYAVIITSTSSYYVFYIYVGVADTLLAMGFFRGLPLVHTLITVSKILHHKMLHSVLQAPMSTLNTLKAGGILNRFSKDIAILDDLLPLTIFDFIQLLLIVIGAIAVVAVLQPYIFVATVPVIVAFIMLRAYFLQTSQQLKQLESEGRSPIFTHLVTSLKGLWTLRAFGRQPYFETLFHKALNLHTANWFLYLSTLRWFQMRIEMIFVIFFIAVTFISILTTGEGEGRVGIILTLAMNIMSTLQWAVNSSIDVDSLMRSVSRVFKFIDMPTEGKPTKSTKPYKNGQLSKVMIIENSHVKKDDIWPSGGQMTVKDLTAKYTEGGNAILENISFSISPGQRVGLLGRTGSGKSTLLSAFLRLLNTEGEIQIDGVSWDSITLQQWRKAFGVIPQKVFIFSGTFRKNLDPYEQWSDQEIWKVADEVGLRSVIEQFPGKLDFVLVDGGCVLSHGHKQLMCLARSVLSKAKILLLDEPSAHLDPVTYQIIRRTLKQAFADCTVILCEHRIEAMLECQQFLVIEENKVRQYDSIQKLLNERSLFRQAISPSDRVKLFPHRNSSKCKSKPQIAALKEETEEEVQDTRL

| Binder | ATPase activity of PKA-phosphorylated wt-CFTR (25 nM) with 1 µM nanobody, percent of the activity without nanobody [1] | shift of the temperature of thermal inactivation of the ATPase activity of wt-CFTR (30 min heat challenge) [2] | thermostabilization of stab-CFTR by nanoDSF (~1:2 molar ratio) [3] | shift of the temperature of thermal inactivation of the ATPase activity of wt-CFTR (30 min heat challenge; 15 µM G3a) [2] |
| --- | --- | --- | --- | --- |
| B1 | 50% | 7 °C | – | – |
| B2 | 50% | – | 8 °C | – |
| B3 | 30% | – | – | – |
| B4 | – | – | – | 3.1 °C |
| B5 | – | – | 8 °C | – |
